Experiments:
[1] = test system: T1, histone H1 peptide substrate PKTPKKAKKL
T1 sequence: PKTPKKAKKL

Aβ 25-35 = test system: T2, Aβ 25-35
T2 sequence: GSNKGAIIGLM

recombinant p34-cdc2/cyclin B1 (Promega)
incorporation of 32P from γ32P-ATP (Aβ 1-42): Aβ 1-42, Aβ 1-40 and Aβ 25-35 incorporated 32P from γ32P-ATP | Michaelis constant (KM) for the phosphorylation [1]: a KM of 2.7 µM for the H1 peptide substrate | incorporation of 32P from γ32P-ATP (Aβ 25-35): Aβ 1-42, Aβ 1-40 and Aβ 25-35 incorporated 32P from γ32P-ATP | incorporation of 32P from γ32P-ATP (Aβ 1-40): Aβ 1-42, Aβ 1-40 and Aβ 25-35 incorporated 32P from γ32P-ATP
